How the values were obtained:
[1] = biological target: Bacillus megaterium SqvB (DUF4867 family member) (Bacillus megaterium); experiment: SEC-MALS; SEC-MALLS; 100 ul injected at 2.7 mg/mL; running buffer 50 mM Tris pH 7.5, 300 mM NaCl; room temperature (20 ± 2 °C)
purified protein = substrate: O=[N+]([O-])c1ccc(O[C@H]2O[C@H](CS(=O)(=O)O)[C@@H](O)[C@H](O)[C@H]2O)cc1; experiment: purified protein; type: biochemical, Agathobacter rectalis; conditions: PBS (50 mM sodium phosphate, 150 mM NaCl), pH 6.5, 30 °C

Molecule	stoichiometry N [1]	Km (purified protein) [µM]	kcat (purified protein) [s⁻¹]	kcat/Km (purified protein) [M⁻¹ s⁻¹]
Bacillus megaterium SqvB (DUF4867 family member) (natural protein)	2	–	–	–
SftG (E. rectale SftG SQase) (Agathobacter rectalis ATCC 33656) (protein, codon-optimised gene in pET29a(+), C-terminal His6 tag, expressed in E. coli NEB T7 Express) MQIKVNDNEFQLFVGEKRILEHSKERPMIYVGVGQEDVDMYRGNFKITDYVTERFPLKLTDVIQTADTVRLCFESYIIAKIKCDENLCTIDFEQKDDRINRFWFRVAADKEEKCYGCGEQMSYFNLRGRNFPIWTSEPGVGRDKTTYVTWRSDVENKAGGDYYNTNYPQPTFVSTNKYYLHVDSTAYADFDFRNDSFHELQIWEVPKQIRIECADTYLKLLERITTYFGRQPKLPDWVYNGLIIGVQGGNERSFGLLDKTLDRNIKVAGIWCQDWCGKRVTSFGKRLQWDWKYHKEMYPDLPKKIKEINAKGIKFLGYVNPYLVNDGELYKEGKEKGYFATKADGSDYLVDFGEFYCGVVDLTNPEAFEWFKDIIKEYTLGIGIDGWMADFGEYLPTDDICLYSGKSPMIEHNHWPVLWAKCNYEAVKESGKLGDVVYFMRAGGAGSQKYCTLLWAGDQSVDFTIHDGLASVICGALSAGMMGCGLTHSDIGGYTSLFDNTRTKELFLRWAEMAMFTPFMRTHEGNRPDTNFQYYDDEDTMERLARLVDVYTMLAPYTKTLVEENADSGHPVQRPLFMHYESDAKAYDIQYEYLFGRDMLIAPVYEQDKHEWDVYLPQDEWVHLWTGEEYHGGEITVSAELGYTPAFYRKNSEFADIFEEIREKYGVK	–	478 ± 30	78.8 ± 3.9	165000 ± 18000
